Results on 6 molecules are retold here after patent US20250026805A1 (DUCENTIS BIOTHERAPEUTICS, published 2025).

The target in assay [1] is T1, Recombinant Human CD200R, His tagged (human, UniProt Q8TD46 27-266, limits assumed).
T1 construct: Bought reagent; Flowed in solution as the analyte in the SPR; also called human CD200 receptor; CD200 receptor; not shown: His tag
T1 sequence (looked up): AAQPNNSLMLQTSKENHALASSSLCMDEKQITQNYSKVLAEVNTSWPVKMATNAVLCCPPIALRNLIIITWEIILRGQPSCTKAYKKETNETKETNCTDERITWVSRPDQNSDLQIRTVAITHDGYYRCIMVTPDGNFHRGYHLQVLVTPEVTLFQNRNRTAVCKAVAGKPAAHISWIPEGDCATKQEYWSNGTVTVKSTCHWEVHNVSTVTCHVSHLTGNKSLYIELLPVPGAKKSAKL
In words: SPR (Biacore T200), CD200-Fc captured on anti-human Fc, His-tagged CD200R flowed over it, 25 C, 1:1 Langmuir model. The method, then: (§1) Anti-human Fc was covalently immobilized on a BIAcore CM5 sensor chip by amine coupling using a GE Healthcare kit following the manufacturer's instructions. Maximum immobilization target was set between 10000-15000 RU. Flow cell 1 was used as a reference, with no immobilized ligand, to permit deduction of non-specific binding to the chip surface. The Fc-ligands were diluted to 0.5 μg/mL in BIAcore running buffer (HBS-EP+: 10 mM HEPES buffered saline containing 2 mM EDTA and 0.05% surfactant P-20). In the final immobilization step, wild-type CD200-Fc, mutant CD200-Fc and un-related control protein (Herceptin/Trastuzumab) were passed over the chip (using flow cells 2, 3 and 4 respectively), for 120 seconds, at a concentration giving rise to a minimum of 250 response units (RU), followed by stabilization of the surface for 120 seconds in running buffer. The CD200-Fc capture procedure was repeated for every CD200R concentration.
(§2) Following capture of the Fc-tagged proteins, CD200R (at different concentrations) was flowed over the captured CD200-Fc and control proteins for 120 seconds (to observe association), followed by 120 seconds of running buffer (to observe dissociation). The chip surface was then regenerated using 10 mM Glycine-HCl (pH 2) for 30 seconds (30 μl/min flow rate) followed by stabilization of the surface for 60 seconds with BIAcore running buffer before the next cycle. All CD200R concentrations were run in duplicate at the following concentrations: 1 μM, 500 nM, 250 nM, 125 nM, 62.5 nM, 31.25 nM, 15.6 nM and 0 nM.
(§3) The results were represented in sensorgrams plotted as response or resonance units (Rus) versus time. The experimental sensorgrams were analyzed in BIAevaluation software version 1.0 (GE Healthcare). […] Rate equations using standard parameters (e.g. ligand concentration, time) were used for iterative curve fitting. Closeness of fit was determined by algorithms provided by the manufacturer in the BIAevaluation software version 1.0.

In assay [2] the target is T1, Recombinant Human CD200R, His tagged. Description: SPR (Biacore T200), CD200-Fc captured on anti-human Fc, His-tagged CD200R flowed over it, 25 C, 1:1 binding model. As to the method:
as §1, §2, §3
(In general: Surface plasmon resonance follows binding to a sensor surface in real time, without labels.)

For assay [3] the target is unchanged. Description: SPR (Biacore T200), CD200-Fc captured on anti-human Fc, His-tagged CD200R flowed over it, 25 C, two state binding model. As to the method:
as §1, with “concentration. […]” for “concentration.”
(§4) The results were represented in sensorgrams plotted as response or resonance units (Rus) versus time. The experimental sensorgrams were analyzed in BIAevaluation software version 1.0 (GE Healthcare). […] Closeness of fit was determined by algorithms provided by the manufacturer in the BIAevaluation software version 1.0.

Assay [4] shares this target. In words: SPR (BIAcore T200, 25 C): CD200-Fc captured through anti-human Fc on a CM5 chip, His-tagged human CD200R flowed over it. Sensorgrams fitted with the 2 site (two state) binding model. Table 4 of the text gives 3.0 nM for this fit. The method, then: as §1, with “concentration. […]” for “concentration.”
as §4

As usually defined, the Kd is the concentration at which binding is half-saturated. As a reminder, the koff is a measure of how fast the partners let go of each other. The term kon denotes a measure of how fast the partners come together. The t½ is how long it takes for the measured level to halve.

Take “DS-155 wild-type CD200-Fc fusion protein (IgG4 S228P Fc)”: in assay [1], the Kd is 50 nM, the koff stood at 0.0251 s⁻¹, the kon was found to be 543000 M⁻¹ s⁻¹ and the t½ is 0.467 min.

B1: DS-150 mutant CD200-Fc fusion protein (K130F, I131F, IgG2 Fc) (Fc fusion)
chain: QVQVVTQDEREQLYTPASLKCSLQNAQEALIVTWQKKKAVSPENMVTFSENHGVVIQPAYKDKINITQLGLQNSTITFWNITLEDEGCYMCLFNTFGFGFFSGTACLTVYVQPIVSLHYKFSEDHLNITCSATARPAPMVFWKVPRSGIENSTVTLSHPNGTTSVTSILHIKDPKNQVGKEVICQVLHLGTVTDFKQTVNKGERKCCVECPPCPAPPVAGPSVFLFPPKPKDTLMISRTPEVTCVVVDVSHEDPEVQFNWYVDGVEVHNAKTKPREEQFNSTFRVVSVLTVVHQDWLNGKEYKCKVSNKGLPAPIEKTISKTKGQPREPQVYTLPPSREEMTKNQVSLTCLVKGFYPSDISVEWESNGQPENNYKTTPPMLDSDGSFFLYSKLTVDKSRWQQGNVFSCSVMHEALHNHYTQKSLSLSPGK
notes: Purified as the dimeric form
Turning to B1, in assay [1], the Kd amounted to 2.6 nM, the koff came to 0.000226 s⁻¹, the kon turned out to be 87500 M⁻¹ s⁻¹ and the t½ was 51.2 min.

B2: DS-151 mutant CD200-Fc fusion protein (K130F, I131Y, IgG2 Fc) (Fc fusion)
chain: QVQVVTQDEREQLYTPASLKCSLQNAQEALIVTWQKKKAVSPENMVTFSENHGVVIQPAYKDKINITQLGLQNSTITFWNITLEDEGCYMCLFNTFGFGFYSGTACLTVYVQPIVSLHYKFSEDHLNITCSATARPAPMVFWKVPRSGIENSTVTLSHPNGTTSVTSILHIKDPKNQVGKEVICQVLHLGTVTDFKQTVNKGERKCCVECPPCPAPPVAGPSVFLFPPKPKDTLMISRTPEVTCVVVDVSHEDPEVQFNWYVDGVEVHNAKTKPREEQFNSTFRVVSVLTVVHQDWLNGKEYKCKVSNKGLPAPIEKTISKTKGQPREPQVYTLPPSREEMTKNQVSLTCLVKGFYPSDISVEWESNGQPENNYKTTPPMLDSDGSFFLYSKLTVDKSRWQQGNVFSCSVMHEALHNHYTQKSLSLSPGK
notes: Purified as the dimeric form
For the molecule B2, in assay [1], the Kd stood at 1.4 nM, the koff amounted to 0.000181 s⁻¹, the kon was 128000 M⁻¹ s⁻¹ and the t½ turned out to be 63.8 min.

B3: DS-149 mutant CD200-Fc fusion protein (K130Y, I131F, IgG2 Fc) (Fc fusion)
chain: QVQVVTQDEREQLYTPASLKCSLQNAQEALIVTWQKKKAVSPENMVTFSENHGVVIQPAYKDKINITQLGLQNSTITFWNITLEDEGCYMCLFNTFGFGYFSGTACLTVYVQPIVSLHYKFSEDHLNITCSATARPAPMVFWKVPRSGIENSTVTLSHPNGTTSVTSILHIKDPKNQVGKEVICQVLHLGTVTDFKQTVNKGERKCCVECPPCPAPPVAGPSVFLFPPKPKDTLMISRTPEVTCVVVDVSHEDPEVQFNWYVDGVEVHNAKTKPREEQFNSTFRVVSVLTVVHQDWLNGKEYKCKVSNKGLPAPIEKTISKTKGQPREPQVYTLPPSREEMTKNQVSLTCLVKGFYPSDISVEWESNGQPENNYKTTPPMLDSDGSFFLYSKLTVDKSRWQQGNVFSCSVMHEALHNHYTQKSLSLSPGK
notes: Purified as the dimeric form
As for B3, in assay [1], the Kd was found to be 1.9 nM, the koff was determined as 0.000229 s⁻¹, the kon turned out to be 132000 M⁻¹ s⁻¹ and the t½ came to 50.5 min.

B4: DS-161 mutant CD200-Fc fusion protein (K130F, IgG2 Fc) (Fc fusion)
chain: QVQVVTQDEREQLYTPASLKCSLQNAQEALIVTWQKKKAVSPENMVTFSENHGVVIQPAYKDKINITQLGLQNSTITFWNITLEDEGCYMCLFNTFGFGFISGTACLTVYVQPIVSLHYKFSEDHLNITCSATARPAPMVFWKVPRSGIENSTVTLSHPNGTTSVTSILHIKDPKNQVGKEVICQVLHLGTVTDFKQTVNKGERKCCVECPPCPAPPVAGPSVFLFPPKPKDTLMISRTPEVTCVVVDVSHEDPEVQFNWYVDGVEVHNAKTKPREEQFNSTFRVVSVLTVVHQDWLNGKEYKCKVSNKGLPAPIEKTISKTKGQPREPQVYTLPPSREEMTKNQVSLTCLVKGFYPSDISVEWESNGQPENNYKTTPPMLDSDGSFFLYSKLTVDKSRWQQGNVFSCSVMHEALHNHYTQKSLSLSPGK
notes: Purified as the dimeric form
B4: in assay [1], the Kd stood at 0.7 nM, the koff came out at 0.000593 s⁻¹, the kon is 838000 M⁻¹ s⁻¹ and the t½ came out at 19.5 min.

B5: DS-162 mutant CD200-Fc fusion protein (I131F, IgG2 Fc) (Fc fusion)
chain: QVQVVTQDEREQLYTPASLKCSLQNAQEALIVTWQKKKAVSPENMVTFSENHGVVIQPAYKDKINITQLGLQNSTITFWNITLEDEGCYMCLFNTFGFGKFSGTACLTVYVQPIVSLHYKFSEDHLNITCSATARPAPMVFWKVPRSGIENSTVTLSHPNGTTSVTSILHIKDPKNQVGKEVICQVLHLGTVTDFKQTVNKGERKCCVECPPCPAPPVAGPSVFLFPPKPKDTLMISRTPEVTCVVVDVSHEDPEVQFNWYVDGVEVHNAKTKPREEQFNSTFRVVSVLTVVHQDWLNGKEYKCKVSNKGLPAPIEKTISKTKGQPREPQVYTLPPSREEMTKNQVSLTCLVKGFYPSDISVEWESNGQPENNYKTTPPMLDSDGSFFLYSKLTVDKSRWQQGNVFSCSVMHEALHNHYTQKSLSLSPGK
notes: Purified as the dimeric form
Regarding B5, in assay [2], the Kd turned out to be 3 nM, the koff stood at 0.00474 s⁻¹, the kon was found to be 1.9e+06 M⁻¹ s⁻¹ and the t½ is 146 s. In addition, the Kd in assay [3] came out at 3 nM. For the same molecule, the Kd in assay [4] worked out at 3.1 nM.
